In US20130230510A1:

Legend:
[1] = target: CD123 (human IL-3Rα) on cells (human) (UniProt P26951); assay: cell-based or functional assay
[2] = target: CD123 (human IL-3Rα) (human) (UniProt P26951); assay: method not stated (indicative KD)
[3] = target: CD123 (human IL-3Rα) (human) (UniProt P26951); assay: method not stated
[4] = target: CD123 (human IL-3Rα) on cells (human) (UniProt P26951); assay: cell-based or functional assay; remark: listed apart in the source

What does the source list for chimeric antibody CSL360?
% CD107a positive NK cells, RMH003 AML target cells, CSL360 10 µg/mL (FIG. 8B) [1]: 39%; % lysis, 51Cr release ADCC, CTLEN cells, E:T 10:1 [1]: 10%; % lysis, 51Cr release ADCC, CTLEN cells, E:T 100:1 [1]: 51%; % lysis, 51Cr release ADCC, SL (AML) cells, E:T 10:1 [1]: 2.4%; % lysis, 51Cr release ADCC, SL (AML) cells, E:T 100:1 [1]: 15%; % lysis, calcein release ADCC, RBH013 (AML), E:T 10:1 [1]: 0%; % lysis, calcein release ADCC, RBH013 (AML), E:T 100:1 [1]: 0%; % lysis, calcein release ADCC, RMH003 (AML), E:T 10:1 [1]: 39.2%; % lysis, calcein release ADCC, RMH003 (AML), E:T 100:1 [1]: 82.6%; % lysis, calcein release ADCC, RMH008 (AML), E:T 10:1 [1]: 59.5%; % lysis, calcein release ADCC, RMH008 (AML), E:T 100:1 [1]: 100%; % lysis, calcein release ADCC, RMH009 (B-ALL), E:T 10:1 [1]: 0%; % lysis, calcein release ADCC, RMH009 (B-ALL), E:T 100:1 [1]: 0%; % lysis, calcein release ADCC, RMH009* (B-ALL), repeat with other PBMC, E:T 10:1 [1]: 0%; % lysis, calcein release ADCC, RMH009* (B-ALL), repeat with other PBMC, E:T 100:1 [1]: 0%; % lysis, calcein release ADCC, RMH010 (AML), E:T 10:1 [1]: 4%; % lysis, calcein release ADCC, RMH010 (AML), E:T 100:1 [1]: 0%; % of NK cells expressing CD107a, E:T 1:1, target CTLEN-001 [1]: 6.7%; % of NK cells expressing CD107a, E:T 1:1, target CTLEN-008 [1]: 24%; % of NK cells expressing CD107a, E:T 1:1, target CTLEN-010 [1]: 5.7%; % of NK cells expressing CD107a, E:T 1:1, target CTLEN-011-PBMC-1 [1]: 8.1%; % of NK cells expressing CD107a, E:T 1:1, target CTLEN-011-PBMC-2 [1]: 10.5%; % of NK cells expressing CD107a, E:T 1:1, target EL4hi-002 [1]: 2.9%; % of NK cells expressing CD107a, E:T 1:1, target EL4hi-003 [1]: 15%; % of NK cells expressing CD107a, E:T 1:1, target EL4hi-004 [1]: 16%; % of NK cells expressing CD107a, E:T 1:1, target EL4hi-005 [1]: 21%; % of NK cells expressing CD107a, E:T 1:1, target EL4hi-010 [1]: 34%; % of NK cells expressing CD107a, E:T 1:1, target EL4hi-011-PBMC-1 [1]: 15.5%; % of NK cells expressing CD107a, E:T 1:1, target EL4hi-011-PBMC-2 [1]: 23.5%; % of NK cells expressing CD107a, E:T 1:1, target EL4hi/lo-001 [1]: 2.8%; % of NK cells expressing CD107a, E:T 1:1, target RBH009^a (AML) [1]: 8.5%; % of NK cells expressing CD107a, E:T 1:1, target RBH009^b (AML) [1]: 8%; % of NK cells expressing CD107a, E:T 1:1, target RBH013^a (AML) [1]: 10%; % of NK cells expressing CD107a, E:T 1:1, target RBH013^b (AML) [1]: 22%; % of NK cells expressing CD107a, E:T 1:1, target RMH003^a (AML) [1]: 30%; % of NK cells expressing CD107a, E:T 1:1, target RMH003^b (AML) [1]: 33%; % of NK cells expressing CD107a, E:T 1:1, target RMH003^c (AML) [1]: 38%; % of NK cells expressing CD107a, E:T 1:1, target RMH007 (B-ALL) [1]: 16.4%; % of NK cells expressing CD107a, E:T 1:1, target RMH008^a (AML) [1]: 9%; % of NK cells expressing CD107a, E:T 1:1, target RMH008^b (AML) [1]: 16%; % of NK cells expressing CD107a, E:T 1:1, target RMH008^c (AML) [1]: 8.7%; % of NK cells expressing CD107a, E:T 1:1, target RMH009^a (B-ALL) [1]: 3%; % of NK cells expressing CD107a, E:T 1:1, target RMH009^b (B-ALL) [1]: 1.7%; % of NK cells expressing CD107a, E:T 1:1, target RMH009^c (B-ALL) [1]: 7.4%; % of NK cells expressing CD107a, E:T 1:1, target RMH010^a (AML) [1]: 14%; % of NK cells expressing CD107a, E:T 1:1, target RMH010^b (AML) [1]: 25.5%; % of NK cells expressing CD107a, E:T 1:1, target RMH011 (AML) [1]: 6.6%; % of NK cells expressing CD107a, E:T 1:1, target TF-1 (GM-CSF) [1]: 0.7%; % of NK cells expressing CD107a, E:T 1:1, target TF-1(IL-3) [1]: 1.45%; IC50, IL-3-dependent TF-1 cell proliferation [1]: 5 nM; Kd [2]: 1.06 nM

For “defucosylated hCSL360 produced by kifunensine treatment (hCSL360kif) (antibody)”, which antibody concentration for almost complete ADCC lysis of Raji-CD123 high cells, E:T 50:1 [1] is on record?
The antibody concentration for almost complete ADCC lysis of Raji-CD123 high cells, E:T 50:1 was 1 ng/mL.

Which antibody concentration for almost complete ADCC lysis of Raji-CD123 high cells, E:T 50:1 [1] does the source give for “humanised CSL360S239D/A330L/I332E (hCSL360Fc3) (from UniProt P01857 1-330) (antibody)” here?
Its antibody concentration for almost complete ADCC lysis of Raji-CD123 high cells, E:T 50:1 is 1 ng/mL.

“humanised variant of CSL360 (hCSL360) (antibody)” was tested. Which IC50, IL-3-dependent TF-1 cell proliferation [1] did it give?
The IC50, IL-3-dependent TF-1 cell proliferation was 19 nM.

What about the Kd [2] of the same molecule?
Its Kd is 12.8 nM.

What about the fold decrease in affinity compared to the chimeric MAb (CSL360) [3] of the same molecule?
The fold decrease in affinity compared to the chimeric MAb (CSL360) was 10 fold.

B1: monoclonal antibody (MAb) 7G3 (antibody, from another filing, V domains shown)
VH: EVQLQQSGPELVKPGASVKMSCKASGYTFTDYYMKWVKQSHGKSLEWIGDIIPSNGATFYNQKFKGKATLTVDRSSSTAYMHLNSLTSEDSAVYYCTRSHLLRASWFAYWGQGTLVTVSA
VL: DFVMTQSPSSLTVTAGEKVTMSCKSSQSLLNSGNQKNYLTWYLQKPGQPPKLLIYWASTRESGVPDRFTGSGSGTDFTLTISSVQAEDLAVYYCQNDYSYPYTFGGGTKLEIKR
For B1, which IL-3 (1 nM)-stimulated CD131 tyrosine phosphorylation, STAT-5 and Akt activation in TF-1 cells; 7G3 concentration that blocks completely [4] is on record?
The IL-3 (1 nM)-stimulated CD131 tyrosine phosphorylation, STAT-5 and Akt activation in TF-1 cells; 7G3 concentration that blocks completely was 100 nM.
